Reference: article PMC6238593, “Beetle luciferases with naturally red- and blue-shifted emission” (Life Science Alliance, 2018)
Positions count from the first letter of the chain named. Blank lines part the entries; values can stand above or below the compound they belong to.

How the values were obtained:
[1] = molecular target: red-emitting luciferase from Phrixothrix hirtus, mutant F162A (Phrixothrix hirtus); test: SEC; Superdex 200 5/150 GL; MWs estimated with a gel filtration calibration kit
[2] = molecular target: red-emitting luciferase from Phrixothrix hirtus, double mutant Y153A/F162A (Phrixothrix hirtus); test: as above
[3] = molecular target: T1, REPh (red-emitting luciferase from P. hirtus) (Phrixothrix hirtus, UniProt Q9U4U7); test: differential scanning calorimetry; type: binding; settings: 35 °C without ligand, Hepes 20 mM pH 7.8, MgCl2 10 mM, ligand 5 uM (methods) or 5 mM (Figure S10 legend)
T1 construct: full-length synthetic codon-optimised gene in pET28-MHL, E. coli BL21-CodonPlus-RIL, Ni and size-exclusion purified; about 61 kDa monomer, tetramer in solution; PDB codes 6AAA, 6ABH, 6AC3 printed without assignment to protein
T1 sequence (Q9U4U7 1-546): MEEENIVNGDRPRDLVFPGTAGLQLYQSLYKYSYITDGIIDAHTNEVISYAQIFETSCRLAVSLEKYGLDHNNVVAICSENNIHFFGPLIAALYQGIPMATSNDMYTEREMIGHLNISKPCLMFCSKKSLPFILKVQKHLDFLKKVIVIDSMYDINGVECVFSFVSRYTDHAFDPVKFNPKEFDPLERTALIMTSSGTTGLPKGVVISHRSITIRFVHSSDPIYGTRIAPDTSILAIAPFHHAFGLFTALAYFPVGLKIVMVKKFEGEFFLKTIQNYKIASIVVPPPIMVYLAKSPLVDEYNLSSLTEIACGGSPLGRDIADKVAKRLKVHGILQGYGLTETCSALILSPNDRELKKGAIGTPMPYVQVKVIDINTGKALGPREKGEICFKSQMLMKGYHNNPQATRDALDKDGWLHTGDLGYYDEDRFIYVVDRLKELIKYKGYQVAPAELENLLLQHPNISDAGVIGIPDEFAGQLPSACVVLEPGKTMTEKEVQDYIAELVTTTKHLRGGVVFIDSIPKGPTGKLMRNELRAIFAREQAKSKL

[4] = molecular target: T2, GBAv (blue-shifted green-emitting luciferase from A. vivianii) (Amydetes, UniProt A0A3F2YLV6); test: bioluminescence emission spectra; type: biochemical; settings: pH 7.0 to 8.0
T2 construct: full-length synthetic codon-optimised gene in pET28a+, E. coli BL21-CodonPlus-RIL, Ni and size-exclusion purified; monomer; PDB codes 6AAA, 6ABH, 6AC3 printed without assignment to protein
T2 sequence (A0A3F2YLV6 1-547): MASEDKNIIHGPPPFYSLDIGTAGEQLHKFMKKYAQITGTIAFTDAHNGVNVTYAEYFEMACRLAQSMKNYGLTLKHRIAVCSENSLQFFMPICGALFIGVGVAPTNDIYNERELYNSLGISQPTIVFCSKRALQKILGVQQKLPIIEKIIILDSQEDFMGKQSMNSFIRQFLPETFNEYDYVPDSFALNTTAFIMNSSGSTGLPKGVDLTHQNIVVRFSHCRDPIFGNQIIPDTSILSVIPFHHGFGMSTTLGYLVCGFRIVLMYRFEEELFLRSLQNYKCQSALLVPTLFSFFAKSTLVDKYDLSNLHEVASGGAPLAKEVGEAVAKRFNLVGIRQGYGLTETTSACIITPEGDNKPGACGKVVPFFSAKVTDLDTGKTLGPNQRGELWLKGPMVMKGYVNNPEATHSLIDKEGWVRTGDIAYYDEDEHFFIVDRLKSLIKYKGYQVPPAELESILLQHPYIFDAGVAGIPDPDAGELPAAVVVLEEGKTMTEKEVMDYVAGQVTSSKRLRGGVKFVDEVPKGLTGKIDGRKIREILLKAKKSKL

[5] = molecular target: red-emitting luciferase from the glow-worm Phrixothrix hirtus, wild type (Phrixothrix hirtus); test: crystal structure; REPh free enzyme, P1 crystal form, 3.05 Å; only the N-terminal domains seen; PEG 3350 19-21%, bis-tris propane 100 mM pH 6.0, ammonium sulfate 200 mM
[6] = molecular target: red-emitting luciferase from the glow-worm Phrixothrix hirtus, wild type (Phrixothrix hirtus); test: crystal structure; REPh free enzyme, P3(1)21 crystal form, 3.60 Å; PEG 3350 19-21%, bis-tris propane 100 mM pH 6.0, ammonium sulfate 200 mM
[7] = molecular target: red-emitting luciferase from the glow-worm Phrixothrix hirtus, wild type (Phrixothrix hirtus); test: SEC; Superdex 200 5/150 GL; MWs estimated with a gel filtration calibration kit
[8] = molecular target: red-emitting luciferase from Phrixothrix hirtus, mutant Y153A (Phrixothrix hirtus); test: as above
[9] = molecular target: T3, REPh (red-emitting luciferase from P. hirtus) (Phrixothrix hirtus, UniProt Q9U4U7, K522A); test: differential scanning calorimetry; type: binding; settings: Hepes 20 mM pH 7.8, MgCl2 10 mM; ligand 5 uM (methods) or 5 mM (Figure S10 legend)
T3 construct: full-length synthetic codon-optimised gene in pET28-MHL, E. coli BL21-CodonPlus-RIL, Ni and size-exclusion purified; about 61 kDa monomer, tetramer in solution; PDB codes 6AAA, 6ABH, 6AC3 printed without assignment to protein
T3 sequence (Q9U4U7 1-546 K522A): T1 sequence (Q9U4U7 1-546) with K522A

stoichiometry N [1]: 2
Compound: red-emitting luciferase from Phrixothrix hirtus, mutant F162A (enzyme)

stoichiometry N [2]: 2
Compound: red-emitting luciferase from Phrixothrix hirtus, double mutant Y153A/F162A (enzyme)

Tm ([3]; Tm with ligand): 41 °C
bioluminescence emission spectra ([4]; co-substrate ATP): The emission of WT GBAv was pH-dependent
Compound: O=C(O)[C@H]1CSC(c2nc3ccc(O)cc3s2)=N1 [firefly luciferin]

stoichiometry N [5]: 8
stoichiometry N [6]: 4
stoichiometry N [7]: 4
Compound: red-emitting luciferase from the glow-worm Phrixothrix hirtus, wild type (enzyme)

stoichiometry N [8]: 2
Compound: red-emitting luciferase from Phrixothrix hirtus, mutant Y153A (enzyme)

Tm ([3]; two transitions with ligand, in °C (unit assumed)): 36 and 41
bioluminescence emission spectra ([4]; co-substrate luciferin): The emission of WT GBAv was pH-dependent
Compound: Nc1ncnc2c1ncn2[C@@H]1O[C@H](COP(=O)(O)OP(=O)(O)OP(=O)(O)O)[C@@H](O)[C@H]1O [ATP]
Tm [9]: signal was detectable only after the addition of substrate, luciferin or ATP
